Results from PMC9375587 (2022).

Target: Thrombin (Homo sapiens, UniProt P00734)
Experiment: solid-phase binding assay

- Kd: 101 nM
B1: Myeloperoxidase (protein)
chain: not shown
